From the RNAGym collection of RNA variant scans (doi:10.1073/pnas.2313332121) come the findings set out here.

This sample holds only a part of the variants without activity. Where only a bound is given, the exact number is not on record here.

First the molecules themselves.
B1: TPR 5TU (parent)
chain: GGAUCUUCUCGAUCUAACAAAAAAGACAAAUCUGCCACAAAGCUUGAGAGCAUCUUCGGAUGCAGAGGCGGCAGCCUUCGGUGGCGCGAUAGCGCCAACGUUCUCAACUAUGACACGCAAAACGCGUGCUCCGUUGAAUGGAGUUUAUCAUG

The series covers variants of B1. The experiment in a line: polymerase ribozyme fitness, log enrichment relative to wild type (log ratio); higher = more active; in vitro selection for triplet polymerase activity. Put shortly:
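Input and output libraries were sequenced on Illumina after a single in vitro selection round, run in triplicate on PCR-built, transcribed mutant libraries of each subunit of a heterodimeric triplet polymerase ribozyme. Selection annealed libraries to a biotinylated primer, the partner subunit and triplets, incubated them frozen at −7 °C, then gel-excised extended constructs for streptavidin-bead capture and RT-PCR. Genotypes with ≥10 input reads and ≥1 read per output were kept. Fitness is the logarithm, taken in base 2, of genotype enrichment divided by wild-type enrichment, using inverse-variance-weighted replicate averages.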
Consider U53A C69U, for which the “polymerase ribozyme fitness (log ratio)” value is -4.11.

As for U9G C27U A41U G46C U90G C96G A119C A122C, the “polymerase ribozyme fitness (log ratio)” value was not above -4.2. Next, C14A A115G: -2.5; C35U G59C C76G G124U: not above -4.2. Under C57U A147U stands 1.47. Consider A24C U56C A64C C96U, for which the “polymerase ribozyme fitness (log ratio)” value is not above -4.2.

Turning to G50A G74U G83A C85G G126U C149A, the “polymerase ribozyme fitness (log ratio)” value was not above -4.2. Under A17U C18U G94C A115U stands -3.41; under U9A C93A A142C, -3.81; under U33G C96A, -1.72.

Regarding A119U U148A, the “polymerase ribozyme fitness (log ratio)” value is -3.01.

Turning to A39C G48U G68C G80C C96U U101G A106U, the “polymerase ribozyme fitness (log ratio)” value is not above -4.2.

For A41C C57A G92A C93A C105U A115C G124A U144A, the “polymerase ribozyme fitness (log ratio)” value is not above -4.2. Next, A47C C72U G94U U102C: not above -4.2; A40C A150C: -3.94; A49G A119C: -0.604.

As to C69G A91G, the “polymerase ribozyme fitness (log ratio)” value was -3.88. Under C5A G42C G84C C85A G86A G92C stands not above -4.2; under C95U C116G A138G, -3.58; under C8U A73G G83A, not above -4.2.

For C18U G42C, the “polymerase ribozyme fitness (log ratio)” value is not above -4.2. Under A19G G141U stands 1.06; under U135A U148G, -3.41. Take A16U A47C G59A C87G U90A U101A A113G: the “polymerase ribozyme fitness (log ratio)” value is not above -4.2. Next, A40G G46U G84U C87U A97U U144A: not above -4.2; C63A U144C U145A: -2.97; U90C G94U A120U G124U: not above -4.2. Under G11A stands -0.693; under G59A G70C C85U A91U, not above -4.2; under A28G C51A G80A, not above -4.2. Next, G81A A91U U101G C103A: not above -4.2.

In the case of U82A C105U, the “polymerase ribozyme fitness (log ratio)” value was determined as 0.242. Next, C93A G140U: -3.85; G50C C96G: -2.66; A3U G94A G117C A137G: -3.

For the variant U53A U61G, the “polymerase ribozyme fitness (log ratio)” value is -0.814. Under A26U G34U G88C C105U U130A stands not above -4.2. C85G C123U G141A: the “polymerase ribozyme fitness (log ratio)” value is -0.441. Next, G84A C125A C132A G140U: -1.25; C85A C116U: -1.08; A19C U55G C93U G136U: -3.02.

For the variant A60G G83A U127G G136A A142G, the “polymerase ribozyme fitness (log ratio)” value is -3.28. Regarding C27U G50U C95U C114U C118G A138U, the “polymerase ribozyme fitness (log ratio)” value was not above -4.2. On to U61A A98U, for which the “polymerase ribozyme fitness (log ratio)” value is -1.28. Next, C14U C51U U56A A119G: -2.23. Next, A29U A142C: -4.15; G34A U77A G88A: not above -4.2. Next, A52G G58U G84U C96A C99U: -4.02.

Turning to A66C U134C, the “polymerase ribozyme fitness (log ratio)” value was not above -4.2. Next, A41C A49C G92A A106C: not above -4.2; A22U A28U A47C C72G G84U C149A: not above -4.2. In the case of G50A G65A U102C, the “polymerase ribozyme fitness (log ratio)” value was -4.1.

On to A52G G84U C118G G128A U144G U145A, for which the “polymerase ribozyme fitness (log ratio)” value was not above -4.2. Under G50C G83C U135A stands not above -4.2; under A120U, -0.233; under A120C, -0.331. In the case of A52C C75U G88C C96U C105G G136U, the “polymerase ribozyme fitness (log ratio)” value is not above -4.2.

Consider C10U C93U G117A A137C, for which the “polymerase ribozyme fitness (log ratio)” value was not above -4.2. Under A3U A37U G42C C57U C95A A120G stands not above -4.2. As to A3G C51G U56A G92U C118U U145C, the “polymerase ribozyme fitness (log ratio)” value was not above -4.2.

As to C54A C116U, the “polymerase ribozyme fitness (log ratio)” value is -0.368.

Take U4C C8A G59A: the “polymerase ribozyme fitness (log ratio)” value is -4.18.

With A39U A110G U148G, the “polymerase ribozyme fitness (log ratio)” value is -4. Consider G25U G84U G117A, for which the “polymerase ribozyme fitness (log ratio)” value is -3.67.

For C14G C69A C96U C118U, the “polymerase ribozyme fitness (log ratio)” value was not above -4.2.

As for A39C G83U, the “polymerase ribozyme fitness (log ratio)” value was -2.83. Next, U13A C72U U82C: -1.38; C35U G81C C85G: -1.5; G80A C85U C118A: -0.52. Next, A37C A52G G84C U130A G143C: not above -4.2. As to A40U A41U C57U C108U G143U, the “polymerase ribozyme fitness (log ratio)” value is not above -4.2. Next, C5A U6C A30U A91U C118A A138G: not above -4.2; A12U G84U G141C: -2.48. Turning to A30G C149G, the “polymerase ribozyme fitness (log ratio)” value is not above -4.2. Under G48U C118A stands -0.303.

For G70A C87U, the “polymerase ribozyme fitness (log ratio)” value was -3.05. Under C10A G48C G59A C103G U104A C105U A113C U146A stands not above -4.2; under C5A G68C G80C C85G A138G, not above -4.2. Under A47C C96U C103A C114G C123U stands not above -4.2; under U13C A16U U33A C54G G67C G133U U144A, not above -4.2; under C8G U31A U33G U53G U55G G94A G126C, not above -4.2. Next, G133A A142G: not above -4.2.

A24U A39G U82A C95G U135A: the “polymerase ribozyme fitness (log ratio)” value is -3.89. Under A23G C85A stands -2.98.
